The results in this text go back to paper PMC8795592, “Human Dermcidin Protects Mice Against Hepatic Ischemia-Reperfusion–Induced Local and Remote Inflammatory Injury” (Frontiers in Immunology, 2021).

Data set [1] deals with the molecule itself. Description: SDS-PAGE with and without DTT; purified recombinant His-tagged protein run on SDS-PAGE in the presence or absence of the reducing agent dithiothreitol; shows disulfide-linked (covalent) dimers only.
Data set [2] addresses T1, recombinant EGFR corresponding to the extracellular domain (residue 25-645) (human, UniProt P00533 25-645).
T1 construct: epidermal growth factor receptor (EGFR), human, extracellular domain, residues 25-645; also called extracellular domain of human EGFR; epidermal growth factor receptor; source: bought: RayBiotech
Nature of the data set: SPR; Nicoya Lifesciences OpenSPR (gold nanoparticles); DCD or DCD-C34S with 6×His tag immobilised on NTA sensor chip; EGFR extracellular domain applied as analyte at three concentrations; KD by Trace Drawer Kinetic Data Analysis v.1.6.1. The settings on record: both partners purified. Background: Surface plasmon resonance follows binding to a sensor surface in real time, without labels.

For data set [3], the target named is T1, recombinant EGFR corresponding to the …. Nature of the data set: SPR; Biacore T200; DCD immobilised on CM5 chip; EGFR extracellular domain applied as analyte at 5 concentrations; KD by Biacore evaluation software 2.0 supposing a 1:1 binding ratio. The conditions noted are these: both partners purified.

B1: recombinant human dermcidin (full-length DCD precursor, residue 20-110) with N-terminal 6×His tag (natural protein, UniProt P81605 20-110, looked up)
chain: YDPEAASAPGSGNPCHEASAAQKENAGEDPGLARQAPKPRKQRSSLLEKGLDGAKKAVGGLGKLGKDAVEDLESVGKGAVHDVKDVLDSVL
notes: dermcidin (DCD), human, residues 20-110, without the N-terminal 19-aa signal leader peptide (residue 1-19); one sentence of the methods says residue 20-100; Without a reducing agent the preparation is a mixture of monomers and disulfide-linked dimers (through Cys34); results and legends print 20-110; also called recombinant DCD; source: E. coli BL21 (DE3) pLysS, purified; Triton X-114 extraction …
B1: in data set [1], the stoichiometry N – broadly, the number of molecules, sites or subunits per partner or assembly – was determined as 2. Further, the values for the Kd in data set [2] and in data set [3] were 58.1 nM and 58.8 nM, respectively.

B2: DCD-C34S analog (recombinant human dermcidin residue 20-110 with a Cys to Ser substitution at residue 34, N-terminal 6×His tag) (natural protein, UniProt P81605 20-110, looked up)
chain: YDPEAASAPGSGNPSHEASAAQKENAGEDPGLARQAPKPRKQRSSLLEKGLDGAKKAVGGLGKLGKDAVEDLESVGKGAVHDVKDVLDSVL
notes: dermcidin (DCD), human, residues 20-110 without the signal leader peptide, with C34S; Made by similar procedures as m1; source: E. coli BL21 (DE3) pLysS, purified to homogeneity; Triton X-114 extraction to remove endotoxins; not shown: His6, N-terminal, kept
On to B2, for which, in data set [2], the Kd (in general, a measure of binding affinity in units of concentration) was found to be 57.9 nM.
